In patent US20230165981A1, “[161Tb]-BASED RADIOPEPTIDES” (priority 2021, published 2023):
Several values for one entry are separate records, joined by “and”; a condition that tells them apart may be missing. Identical values can stand only once. Like-named read-outs stand apart in the source and are kept apart here. Starred links: 1 amine or outer side, 2 acyl side, 3 side chain; linkers in the order of their positions; H or OH if unused. Positions of bridges follow the written chain, without caps; N, C: chain ends. Non-standard residues stand in square brackets, D forms with d. Residues, ends and D or L forms follow the SMILES beside them. *: point of attachment. DOTA = O=C(O)CN1CCN(CC(=O)O)CCN(CC(=O)*)CCN(CC(=O)O)CC1; X1 = NC(=O)Nc1ccc(CC(N[*:1])C(=O)[*:2])cc1; Phe(4-Cl) = N[CH](Cc1ccc(Cl)cc1)C(=O)O

How the values were obtained:
AR42J tumors = experiment: Preclinical therapy study in AR42J tumor-bearing mice; assay type: in vivo
[1] = test system: metastatic functional neuroendocrine neoplasm of the pancreatic tail; experiment: First-in-man scintigraphy and SPECT/CT; assay type: in vivo, human; conditions: 0.5-113 hours p.i., patient
Method: A patient with a metastatic functional neuroendocrine neoplasm of the pancreatic tail was injected with 161TbDOTATOC. Scintigraphy and SPECT were recorded. […] FIGS. 18A, 18B, 18C, and 18D show whole-body images obtained at 0.5 hours post-injection (p.i.) (FIG. 18A), 2.5 hours p.i. (FIG. 18B), 20 hours p.i. (FIG. 18C), and 113 hours p.i. (FIG. 18D) of 161Tb-DOTATOC. Early blood-pool activity was noticed in the heart (H) and blood vessels (BV).
FIGS. 19A, 19B, and 19C show SPECT/CT images obtained at 19 hours after injection of 161Tb-DOTATOC. (FIG. 19A) Coronal section, (FIG. 19B) sagittal section, and (FIG. 19C) transverse section.

AR42J tumor-bearing mice [2] = experiment: Biodistribution: optimum injected molar amount; conditions: 2 h p.i.
[3] = n-octanol/PBS distribution coefficient (logD), shake-flask method; assay type: physicochemical; conditions: n-octanol/PBS pH 7.4
Method: An aliquot of the radiolabeled peptide (0.5 MBq, 25 µL) was added to a mixture of 1475 µL PBS pH 7.4 and 1500 µL n-octanol. The respective tubes were vortexed for 60 sec and centrifuged for 6 min at 2500 rpm followed by the measurement of the activity concentration in a defined volume of each layer using a γ-counter (Perkin Elmer, Wallac Wizard 1480). The logD values were calculated as the logarithm of the ratio of counts per minute (cpm) measured in the n-octanol phase relative to the cpm measured in the PBS pH 7.4 phase. The experiments were performed three times with five replicates for each radiopeptide and the logD value was expressed as the average ± standard deviation (SD) of the values obtained in each experiment. […] A p value <0.05 was considered statistically significant.

[4] = Assessment of early side effects in therapy mice; conditions: endpoint of therapy
Method: Early side effects were assessed based on the RBW of each mouse which was monitored every second day. When an endpoint was reached or at the end of the study (after 49 days), relevant organs and tissues were collected, weighed and put into relation to the brain mass and body weight of the respective mouse. This allowed comparison of organ-to-brain and organ-to-body mass weight ratios. In addition, blood plasma parameters from blood collected immediately after euthanasia were measured.
RBW, organ mass and mass ratios at the endpoint: The RBW was monitored every second day. Mice were euthanized when a predefined endpoint criterion was reached or when the study was terminated at Day 49. RBWs, organ masses, organ mass ratios (kidney-to-brain, liver-to-brain and spleen-to-brain) and organ mass to body weight ratios (kidney-to-body mass, liver-to-body mass and spleen-to-body mass) were analyzed for significance using a one-way ANOVA test with a Tukey’s multiple comparisons post-test. A p-value of <0.05 was considered as statistically significant.
Blood plasma chemistry: Immediately before euthanasia of the mice that reached the endpoint, blood was sampled from the retrobulbar vein. The values of creatinine (CRE), blood urea nitrogen (BUN), alkaline phosphatase (ALP), total bilirubin (TBIL) and albumin (ALB) were determined in the plasma after centrifugation of the blood using a dry chemistry analyzer (DRI-CHEM 4000i, FUJIFILM, Japan). The average blood plasma parameters of each group were analyzed for significance using a one-way ANOVA test with a Tukey’s multiple comparisons post-test. A p-value of <0.05 was considered as statistically significant.

AR42J tumor-bearing mice [5] = conditions: 0.2 nmol/mouse
Method: All applicable international, national, and/or institutional guidelines for the care and use of animals were followed. In particular, all animal experiments were carried out according to the guidelines of Swiss Regulations for Animal Welfare. The preclinical studies were ethically approved by the Cantonal Committee of Animal Experimentation and permitted by the responsible cantonal authorities (license N° 75721 and 79692). Five-week-old female, athymic nude mice (CD-1 Foxn-⅟nu) were obtained from Charles River Laboratories (Sulzfeld, Germany). Mice were subcutaneously inoculated with AR42J tumor cells (5 × 10^6 cells in 100 µL PBS) for SPECT/CT imaging, biodistribution and therapy studies. The SPECT/CT and biodistribution studies were performed 10-14 days after tumor cell inoculation when the tumor size reached a volume of ~250 mm^3.
The mice were sacrificed at 0.5 h, 2 h, 4 h, 24 h and 48 h p.i, selected tissues and organs were collected, weighed, and the accumulated activity was counted using a γ-counter (Perkin Elmer). The decay-corrected data were listed as % IA/g. The data were analyzed for significance using a two-way ANOVA with Tukey’s multiple comparison post-tests. A p-value of <0.05 was considered statistically significant.

AR42J tumor-bearing mice [6] = conditions: 24 h p.i., 1 nmol/mouse
Method: (§1) Five-week-old female, athymic nude mice (CD-1 Foxn-⅟nu) were obtained from Charles River Laboratories (Sulzfeld, Germany). Mice were subcutaneously inoculated with AR42J tumor cells (5 × 10^6 cells in 100 µL PBS) for SPECT/CT imaging, biodistribution and therapy studies. The SPECT/CT and biodistribution studies were performed 10-14 days after tumor cell inoculation when the tumor size reached a volume of ~250 mm^3.
(§2) The mice were sacrificed at 2 h and 24 h post injection (p.i.). Selected tissues and organs were collected, weighed, and the accumulated activity was counted in a γ-counter. The decay-corrected data were listed as the percentage of the injected activity per gram of tissue mass (% IA/g). The data were analyzed for significance using a two-way ANOVA with Tukey’s multiple comparison post-tests. A p-value of <0.05 was considered statistically significant.

in vivo = conditions: female, athymic nude (CD-1 Foxn-1nu), mouse, iv, 1 nmol/mouse, total radioactivity
Method: as §1, §2

C[C@@H](O)[C@@H]1NC(=O)[C@H](CCCCN)NC(=O)[C@@H](Cc2c[nH]c3ccccc23)NC(=O)[C@H](Cc2ccc(O)cc2)NC(=O)[C@@H](NC(=O)[C@@H](Cc2ccccc2)NC(=O)CN2CCN(CC(=O)O)CCN(CC(=O)O)CCN(CC(=O)O)CC2)CSSC[C@@H](C(=O)N[C@H](CO)[C@@H](C)O)NC1=O [[^161Tb]Tb-DOTATOC] [metal not drawn]
Median survival (AR42J tumors; 2 x 10 MBq, 0.2 nmol): 21 days | tumor growth delay (AR42J tumors; 2 x 10 MBq, 0.2 nmol, Day 0 and 7): 9.0 ± 5.5 days | Time frame of euthanasia (AR42J tumors; 2 x 10 MBq, 0.2 nmol, end of study = 49 days): 20 to 26 days | tumor doubling time (AR42J tumors; regrowth phase): 3.4 ± 3.6 days | uptake in whole-body scintigraphy [1]: Pathological uptake was demonstrated in the bilobar liver | Tu-to-adr (tumor-to-adrenals) (AR42J tumor-bearing mice [2]; 0.040 nmol/mouse): 24 ± 1 | Tu-to-blood (AR42J tumor-bearing mice [2]; 0.040 nmol/mouse): 187 ± 12 | Tu-to-kidney (AR42J tumor-bearing mice [2]; 0.040 nmol/mouse): 1.8 ± 0.2 | Tu-to-liver (AR42J tumor-bearing mice [2]; 0.040 nmol/mouse): 73 ± 3 and 74 ± 3 | Tu-to-adr (tumor-to-adrenals) (AR42J tumor-bearing mice [2]; 0.20 nmol/mouse): 34 ± 7 | Tu-to-blood (AR42J tumor-bearing mice [2]; 0.20 nmol/mouse): 221 ± 56 | Tu-to-kidney (AR42J tumor-bearing mice [2]; 0.20 nmol/mouse): 1.5 ± 0.1 | Tu-to-liver (AR42J tumor-bearing mice [2]; 0.20 nmol/mouse): 76 ± 14 | Biodistribution: AR42J Tumor (AR42J tumor-bearing mice [2]; 1.0 nmol/mouse): 8.2 ± 0.2 % IA/g | Biodistribution: Adrenals (AR42J tumor-bearing mice [2]; 1.0 nmol/mouse): 0.25 ± 0.06 % IA/g | Biodistribution: Blood (AR42J tumor-bearing mice [2]; 1.0 nmol/mouse): ≤0.10 % IA/g | Biodistribution: Femur (AR42J tumor-bearing mice [2]; 1.0 nmol/mouse): ≤0.10 % IA/g | Biodistribution: Heart (AR42J tumor-bearing mice [2]; 1.0 nmol/mouse): ≤0.10 % IA/g | Biodistribution: Intestines (AR42J tumor-bearing mice [2]; 1.0 nmol/mouse): 0.21 ± 0.13 % IA/g | Biodistribution: Kidneys (AR42J tumor-bearing mice [2]; 1.0 nmol/mouse): 9.9 ± 1.3 % IA/g | Biodistribution: Liver (AR42J tumor-bearing mice [2]; 1.0 nmol/mouse): 0.17 ± 0.01 % IA/g | Biodistribution: Lung (AR42J tumor-bearing mice [2]; 1.0 nmol/mouse): 0.27 ± 0.03 % IA/g | Biodistribution: Muscle (AR42J tumor-bearing mice [2]; 1.0 nmol/mouse): ≤0.10 % IA/g | Biodistribution: Pancreas (AR42J tumor-bearing mice [2]; 1.0 nmol/mouse): 0.71 ± 0.07 % IA/g | Biodistribution: Spleen (AR42J tumor-bearing mice [2]; 1.0 nmol/mouse): 0.11 ± 0.02 % IA/g | Biodistribution: Stomach (AR42J tumor-bearing mice [2]; 1.0 nmol/mouse): 0.74 ± 0.38 % IA/g | LogD [3]: -3.3 ± 0.2 | ALB (albumin) [4]: 23 ± 2 g/L | ALP (alkaline phosphatase) [4]: 76 ± 21 U/L | BUN (blood urea nitrogen) [4]: 5.8 ± 1.0 mmol/L | CRE (plasma creatinine) [4]: <18 (n=6) µmol/L | TBIL (total bilirubin) [4]: < 3 µmol/L and 4 ± 1 µmol/L | Biodistribution: AR42J Tumor (AR42J tumor-bearing mice [5]; 0.5 h p.i.): 15 ± 2 % IA/g | Biodistribution: AR42J Tumor (AR42J tumor-bearing mice [5]; 2 h p.i.): 14 ± 1 % IA/g | Biodistribution: Adrenals (AR42J tumor-bearing mice [5]; 2 h p.i.): 0.43 ± 0.11 % IA/g | Biodistribution: Femur (AR42J tumor-bearing mice [5]; 2 h p.i.): 0.12 ± 0.03 % IA/g | Biodistribution: Heart (AR42J tumor-bearing mice [5]; 2 h p.i.): ≤0.10 % IA/g | Biodistribution: Intestines (AR42J tumor-bearing mice [5]; 2 h p.i.): 0.24 ± 0.01 % IA/g | Biodistribution: Kidneys (AR42J tumor-bearing mice [5]; 2 h p.i.): 9.4 ± 0.4 % IA/g | Biodistribution: Liver (AR42J tumor-bearing mice [5]; 2 h p.i.): 0.19 ± 0.03 % IA/g | Biodistribution: Lung (AR42J tumor-bearing mice [5]; 2 h p.i.): 0.47 ± 0.05 % IA/g | Biodistribution: Muscle (AR42J tumor-bearing mice [5]; 2 h p.i.): ≤0.10 % IA/g | Biodistribution: Pancreas (AR42J tumor-bearing mice [5]; 2 h p.i.): 1.5 ± 0.2 % IA/g | Biodistribution: Spleen (AR42J tumor-bearing mice [5]; 2 h p.i.): 0.18 ± 0.02 % IA/g

CC(O)C1NC(=O)C(CCCCN)NC(=O)C(Cc2ccc(NC(N)=O)cc2)NC(=O)C(Cc2ccc(O)cc2)NC(=O)C(NC(=O)C(Cc2ccc(Cl)cc2)NC(=O)CN2CCN(CC(=O)O)CCN(CC(=O)O)CCN(CC(=O)O)CC2)CSSCC(C(=O)NC(Cc2ccc(O)cc2)C(N)=O)NC1=O (centres unmarked) [metal not drawn] ({DOTA}-[Phe(4-Cl)]CY[X1]KTCY-NH2; disulfide 2-7; configuration not given here)
Tumor-to-liver (AR42J tumor-bearing mice [6]): 63 ± 18 | tissue uptake at 2 h (in vivo; femur): 0.2 ± 0.05 %ID/g | tissue uptake at 2 h (in vivo; kidneys): 12 ± 2 %ID/g | tissue uptake at 2 h (in vivo; lung): 1 ± 0.2 %ID/g | tissue uptake at 24 h (in vivo; spleen): 0.13 ± 0.03 %ID/g | ALB (albumin) [4]: 22 ± 1 g/L | ALP (alkaline phosphatase) [4]: 65 ± 15 U/L | BUN (blood urea nitrogen) [4]: 9.1 ± 1.5 mmol/L | CRE (plasma creatinine) [4]: <18 (n=5) 18 (n=1) µmol/L | TBIL (total bilirubin) [4]: <3 (n=5) 3 (n=1) µmol/L | Biodistribution: Muscle (AR42J tumor-bearing mice [5]; 2 h p.i.): ≤0.10 % IA/g | Biodistribution: Spleen (AR42J tumor-bearing mice [5]; 2 h p.i.): 0.41 ± 0.08 % IA/g
